The values below are quoted from earlier work in article PMC3022542.

Series [1] addresses importin α5 (Homo sapiens) (UniProt P52294). The series is described as follows: isothermal titration calorimetry.
Series [2] has the same target. The series is described as follows: isothermal titration calorimetry. This is another data set of the same source.

Like-named read-outs stand apart in the source and are kept apart here.

Chain of UniProt P52294 (P52294 whole entry): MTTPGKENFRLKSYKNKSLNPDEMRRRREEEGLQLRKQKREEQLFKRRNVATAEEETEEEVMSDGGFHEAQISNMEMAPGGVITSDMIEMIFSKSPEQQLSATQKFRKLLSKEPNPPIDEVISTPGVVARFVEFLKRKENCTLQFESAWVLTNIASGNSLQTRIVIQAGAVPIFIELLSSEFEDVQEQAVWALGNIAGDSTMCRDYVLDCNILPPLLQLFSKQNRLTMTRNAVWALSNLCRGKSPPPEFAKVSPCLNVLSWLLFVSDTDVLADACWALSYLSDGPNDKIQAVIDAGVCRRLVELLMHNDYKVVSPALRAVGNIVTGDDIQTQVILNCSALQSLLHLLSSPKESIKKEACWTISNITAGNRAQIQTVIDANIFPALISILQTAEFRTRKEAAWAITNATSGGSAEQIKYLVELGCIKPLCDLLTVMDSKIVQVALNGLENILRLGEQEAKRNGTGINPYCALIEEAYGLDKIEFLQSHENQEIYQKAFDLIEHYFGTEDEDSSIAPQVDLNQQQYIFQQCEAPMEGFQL

In the case of “EBNA-1 NLS peptide NLS (from UniProt P03211)”, the equilibrium dissociation constant (Kd) was 60 µM in series [1] and 3 µM in series [2].
